Data reported in the domain aggregation screens of Martell et al. (2025).

Assay: soluble fraction after stress (log2 fold change); higher = more stays soluble; pooled small domains, quantitative proteomics
Conditions: stress: 75 degC
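Also: 20 min heating vs room temperature control held 20 min.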

For “HMAGAITEREVEVLELLSRGLGNKEIAKELFVSEATVKSHLSHIYTKLAVDTRAGAVAAAIERRIIRAWR”, the “soluble fraction (log2)” value was -2.99.

For “HMAGASQAVKAQLRLREMILAGELPGGARIAELTLVEKLGVSRTPIRAALMRLEQEGLLHRLPGGGYAVRT”, the “soluble fraction (log2)” value was -2.27.

With “HMAGDDEIEKIAQDILAAWPDKVAAYQAGNKGLMGLFMGELMKKSQGKANPKVASGIIQKLLD” the “soluble fraction (log2)” value was 0.0201.

With “HMAGEDPANLELMRLMDEEYMEHPTKGVLGMVDFLRALGILTGPKRVRRLLRKMGIMAIYPK” the “soluble fraction (log2)” value was 0.159.

In the case of “HMAGGVFELTGKVTADAKAGDLVYVKAATGAGTKPVVTTVKTGADVIIGWLKEPVSSASVDQKMQVVLA”, the “soluble fraction (log2)” value is reported as 0.267.

In the case of “HMAGITLHAEEGRVRIRSQSEGLVKVLDAMGREQASWPLRSKGWWFFLTEGWAPGTYFVKTESGETQRFLV”, the “soluble fraction (log2)” value is reported as 0.274.

With “HMAGNNTATKEIAELLIAKGADVNAMNLSPPGREIGGMTPLDMAILGNRNEIADLLRKHGGRTQKELKAE” the “soluble fraction (log2)” value was 0.262.

In the case of “HMAGPGAEVVDRLIAVLTGERPATAADQVLLSILKGLGIGGVVLPSERTGLGWSGLYQRVKEITDMN”, the “soluble fraction (log2)” value is reported as -1.61.

For “HMAGPRRRLLDAAIDRAAERGLGDLSLRALAEELGTSHRMLSHHFGSKDGLWLAIVEEVERRQ”, the “soluble fraction (log2)” value was -1.08.

In the case of “HMAGSTAASKHALALLNTARHSIRDGNLTSAAAEIKQALATSQEQIVITEARSLMTAMEARATTRRATVLQ”, the “soluble fraction (log2)” value is reported as -0.41.

With “HMAGTAMRATTAVNVRSGAGTNYSRIGLLQAGEQIQALSSKNGWTQVSYKGRTGYVASAYLASL” the “soluble fraction (log2)” value was -2.57.

With “HMAGTGKVNTGVANVRSGPGTNYEISGKIYADTEVSILETSNGWYKIKFGNLTGWMSGTVLDIK” the “soluble fraction (log2)” value was -0.902.

In the case of “HMAGTPAVVKWFNPTKGFGFVTPREAGSDALLHASVLAKQGKRWLQEGTVVEVVLEEGPKGLVVSEVLTIE”, the “soluble fraction (log2)” value is reported as -0.457.

In the case of “HMAGWMPGGTNPAEPGRFAVLMDVDDSDAYKHMFLRWNGHAWEFERTRVLVKMEPSWWMRLPDDPEKP”, the “soluble fraction (log2)” value is reported as -3.16.

In the case of “HMAHKRVDGTIVTPLTADTIVLRTGTHGEQPFEIRDTTRHKLESLQKGDMVILLIDTDNKVIDVAIPP”, the “soluble fraction (log2)” value is reported as 0.373.

In the case of “HMAHYYVRNGYYYYQRRIPLDLRKFYSGANIKASLKTKDPAIAALFVAKFDRQYDAEFAQRRLNPD”, the “soluble fraction (log2)” value is reported as -0.533.

For “HMAIELIDLIKNPETAPFSKLKYLKWMPEAEVTGFFNNLFQLNVTARETGDWSTVDKFLEDEGDRIAAQVA”, the “soluble fraction (log2)” value was -0.0284.

For “HMAIEMSTITKRVTSTGEIRYRALLQIRREDVNYTESRTFSKKSLAEAWLKKREVELEANPELLHQ”, the “soluble fraction (log2)” value was -3.44.

With “HMAIGERIRFLRTLRRMTQKELGLAAGFPEKNASIRMAQYENGTRTPKAELTAVLAEILKVSPQALTV” the “soluble fraction (log2)” value was -1.52.

In the case of “HMAIKNKNEQLEAIIKFADLRGEFKTADIEELLSIKSSRARLLISELVKIGKLESIGSNRNRRYHIK”, the “soluble fraction (log2)” value is reported as -0.974.

With “HMAIKTGAVTGHGVKVRKGPSTNEKAIHDVLYGSRLQILEEKNGFLKAKFEDGTTGWISKQFVTTTDKNLL” the “soluble fraction (log2)” value was -0.0233.

In the case of “HMAIKWTPEIEDEVSNKLKEKWSPEQISAWLKKNKSIMISHQRIYQFIVEDKMSGGNLYRNLRQ”, the “soluble fraction (log2)” value is reported as -2.45.

For “HMAIPTTDSDKATDAQIKQIKLLGDIHPNLKLDAWLERNHVTWETLTREQAGNMMKAIKNKYGD”, the “soluble fraction (log2)” value was -0.105.

For “HMAISEAERARLQTKIKERNKMARWINTNLNPTSKIRNINPAETVRKLMTQDDADSLERSLDAFMEA”, the “soluble fraction (log2)” value was -0.0807.

With “HMAIVNVEVPSLVGKTEQEARNLLTEAGLKVNVVNDEDESKNDGVVLRQSKDAGTEVQEGTTITITVNKVS” the “soluble fraction (log2)” value was 0.0932.

In the case of “HMAKDDFMSFVKAVWPEFIEGAHHRVIAQKFNDLATGKITRLIVNMPPRHTKSEFASYLLPAW”, the “soluble fraction (log2)” value is reported as 0.214.

With “HMAKDEYGLTSNQRAFADEYIRNKGNATQAYLFAYPHIKKENTAAVNASRLLRNAKVSKYIADRTKEIL” the “soluble fraction (log2)” value was -0.103.

In the case of “HMAKIDSRKALIDQLTTTFTRAQLEELITKNELSTDARFFLSQWNAKGWIRKTAKNVYEKLR”, the “soluble fraction (log2)” value is reported as -0.969.

For “HMAKLTPDQQELRAIRIELQMSQPDFADAININVPRLSSYEYGRTAGVPTSIMEAARELKRSMSR”, the “soluble fraction (log2)” value was -0.848.

With “HMAKRDEIEAELPRFVATITQELAASRDVLSMIEHYKQNSGPVFSAELDVLTADMRSGSYEAALTRFEARF” the “soluble fraction (log2)” value was 0.188.
